Experimental data from patent US20180155451A1 (published 2018).

T1: FcγRIIb (human, UniProt P31994 43-217)
T1 construct: extracellular domain; also called FcgRIIb; 2b
T1 sequence (looked up): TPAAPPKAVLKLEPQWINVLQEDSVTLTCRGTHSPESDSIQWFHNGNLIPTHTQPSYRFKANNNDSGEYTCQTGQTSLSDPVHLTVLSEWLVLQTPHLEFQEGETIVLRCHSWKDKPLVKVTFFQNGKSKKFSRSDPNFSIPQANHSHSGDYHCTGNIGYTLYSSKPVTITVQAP

T2: FcγRIIa H (FcγRIIa, type H allotype, His at position 131), extracellular domain with C-terminal His tag (human, UniProt P12318 34-217)
T2 construct: extracellular domain; Soluble receptor expressed in FreeStyle293 cells; analyte in Biacore; also called FcgRIIa H; 2aH; not shown: C-terminal His tag
T2 sequence (looked up): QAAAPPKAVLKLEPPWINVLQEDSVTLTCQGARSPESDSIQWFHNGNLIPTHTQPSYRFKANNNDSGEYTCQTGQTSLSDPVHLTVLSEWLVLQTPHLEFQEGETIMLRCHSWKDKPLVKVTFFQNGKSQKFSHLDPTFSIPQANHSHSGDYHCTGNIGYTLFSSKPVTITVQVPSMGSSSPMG

T3: FcγRIIb, extracellular domain with C-terminal His tag (human, UniProt P31994 43-217)
T3 construct: extracellular domain; Soluble receptor expressed in FreeStyle293 cells; analyte in Biacore; also called FcgRIIb; 2b; not shown: C-terminal His tag
T3 sequence (looked up): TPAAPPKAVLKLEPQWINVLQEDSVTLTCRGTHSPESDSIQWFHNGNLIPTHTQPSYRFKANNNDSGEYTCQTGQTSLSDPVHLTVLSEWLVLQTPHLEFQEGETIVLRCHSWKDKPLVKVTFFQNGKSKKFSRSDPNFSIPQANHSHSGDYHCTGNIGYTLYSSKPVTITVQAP


What was measured:
FcγRIIb = target: T1, FcγRIIb; assay: SPR (Biacore), antibody captured, FcγR as analyte; relative binding
Method: The heterodimerized antibodies He Abs in which one of the H chains was introduced with an alteration were assayed for their binding activities to each activating FcγR and inhibitory FcγR according to the method described in Example 4. […] The activating FcγRs in FIGS. 26, 27, 28, and 29 are FcγRIa, FcγRIIa (R), FcγRIIa (H), and FcγRIIIa, respectively.
Analysis of interaction between objective antibody and the FcγR was carried out using Biacore T100 (GE Healthcare). HBS-EP+ (GE Healthcare) was used as the running buffer, and the measurement temperature was set to 25° C. Chips produced by immobilizing the antigen peptide by the amine coupling method to a Series S Sencor Chip CM5 (GE Healthcare), or alternatively, chips produced by allowing preliminarily biotinylated antigen peptides to interact with and immobilize onto a Series S Sensor Chip SA (certified) (GE Healthcare) were used. Antibodies of interest were captured onto an antigen peptide-immobilized chip, and allowed to interact to each FcγR diluted with running buffer. To regenerate and repeatedly use the chip, the antibodies captured on the chip were washed off by reacting 10 mM glycine-HCl, pH 1.5.

[1] = target: T2, FcγRIIa H (FcγRIIa, type H allotype, …); assay: SPR (Biacore), captured antibody, FcγR as analyte
[2] = target: T3, FcγRIIb, extracellular domain with …; assay: SPR (Biacore), captured antibody, FcγR as analyte
[3] = target: T2, FcγRIIa H (FcγRIIa, type H allotype, …); assay: ratio of He/Con_2aH to He/Con_2b (FcγRIIa H over FcγRIIb), SPR
[4] = target: T4, FcγRIIIa extracellular domain with C-terminal His tag (human, UniProt P08637 17-208); assay: SPR, relative to GpH7-A5/GpH7-B3/GpL16-k0
T4 construct: extracellular domain; also called FcgRIIIa; 3a
T4 sequence (P08637 17-208): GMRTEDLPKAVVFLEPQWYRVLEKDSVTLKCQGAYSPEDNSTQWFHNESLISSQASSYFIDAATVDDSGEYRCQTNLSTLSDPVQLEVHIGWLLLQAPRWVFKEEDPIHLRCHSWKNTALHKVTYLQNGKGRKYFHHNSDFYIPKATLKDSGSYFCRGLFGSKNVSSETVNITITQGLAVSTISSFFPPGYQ

| He/Con_2b (IIb binding) (FcγRIIb) | He/Con_2aH [1] | He/Con_2b [2] | He_2aH/2b (IIaH/IIb) [3] | He/Con_3a [4] | Binder |
| --- | --- | --- | --- | --- | --- |
| 0.6 % of GpH7-A5/GpH7-B3/GpL16-k0 (=100) | – | – | – | – | GpH7-A5/GpH7-B3 variant D265_15Y/GpL16-k0 (antibody, human IgG1, kappa, heterodimerized antibody, mutation in the GpH7-B3 chain only; also called He Ab) heavy 1: not shown heavy 2: not shown light: DIVMTQSPLSLPVTPGEPASISCQASESLVHSNRNTYLHWYLQKPGQSPQLLIYKVSNRFSGVPDRFSGSGSGTDFTLKISRVEAEDVGVYYCSQNTHVPPTFGQGTKVEIERTVAAPSVFIFPPSDEQLKSGTASVVCLLNNFYPREAKVQWKVDNALQSGNSQESVTEQDSKDSTYSLSSTLTLSKADYEKHKVYACEVTHQGLSSPVTKSFNRGEC |
| – | 52.5 relative, GpH7-A5/GpH7-B3/GpL16-k0 = 100 | 30.5 relative, GpH7-A5/GpH7-B3/GpL16-k0 = 100 | 1.72 | – | GpH7-A5/GpH7-B3 variant D270_01G/GpL16-k0 (antibody, human IgG1, kappa, Heterodimerized IgG1; mutation only in the GpH7-B3 chain; also called He Ab) heavy 1: not shown heavy 2: not shown light: DIVMTQSPLSLPVTPGEPASISCQASESLVHSNRNTYLHWYLQKPGQSPQLLIYKVSNRFSGVPDRFSGSGSGTDFTLKISRVEAEDVGVYYCSQNTHVPPTFGQGTKVEIERTVAAPSVFIFPPSDEQLKSGTASVVCLLNNFYPREAKVQWKVDNALQSGNSQESVTEQDSKDSTYSLSSTLTLSKADYEKHKVYACEVTHQGLSSPVTKSFNRGEC |
| 1.1 % of GpH7-A5/GpH7-B3/GpL16-k0 (=100) | – | – | – | – | GpH7-A5/GpH7-B3 variant D265_20W/GpL16-k0 (antibody, human IgG1, kappa, heterodimerized antibody, mutation in the GpH7-B3 chain only; also called He Ab) heavy 1: not shown heavy 2: not shown light: DIVMTQSPLSLPVTPGEPASISCQASESLVHSNRNTYLHWYLQKPGQSPQLLIYKVSNRFSGVPDRFSGSGSGTDFTLKISRVEAEDVGVYYCSQNTHVPPTFGQGTKVEIERTVAAPSVFIFPPSDEQLKSGTASVVCLLNNFYPREAKVQWKVDNALQSGNSQESVTEQDSKDSTYSLSSTLTLSKADYEKHKVYACEVTHQGLSSPVTKSFNRGEC |
| – | 75.4 relative, GpH7-A5/GpH7-B3/GpL16-k0 = 100 | 53.1 relative, GpH7-A5/GpH7-B3/GpL16-k0 = 100 | 1.42 | – | GpH7-A5/GpH7-B3 variant D270_04F/GpL16-k0 (antibody, human IgG1, kappa, Heterodimerized IgG1; mutation only in the GpH7-B3 chain; also called He Ab) heavy 1: not shown heavy 2: not shown light: DIVMTQSPLSLPVTPGEPASISCQASESLVHSNRNTYLHWYLQKPGQSPQLLIYKVSNRFSGVPDRFSGSGSGTDFTLKISRVEAEDVGVYYCSQNTHVPPTFGQGTKVEIERTVAAPSVFIFPPSDEQLKSGTASVVCLLNNFYPREAKVQWKVDNALQSGNSQESVTEQDSKDSTYSLSSTLTLSKADYEKHKVYACEVTHQGLSSPVTKSFNRGEC |
| – | 64 relative, GpH7-A5/GpH7-B3/GpL16-k0 = 100 | 41.5 relative, GpH7-A5/GpH7-B3/GpL16-k0 = 100 | 1.54 | – | GpH7-A5/GpH7-B3 variant D270_07I/GpL16-k0 (antibody, human IgG1, kappa, Heterodimerized IgG1; mutation only in the GpH7-B3 chain; also called He Ab) heavy 1: not shown heavy 2: not shown light: DIVMTQSPLSLPVTPGEPASISCQASESLVHSNRNTYLHWYLQKPGQSPQLLIYKVSNRFSGVPDRFSGSGSGTDFTLKISRVEAEDVGVYYCSQNTHVPPTFGQGTKVEIERTVAAPSVFIFPPSDEQLKSGTASVVCLLNNFYPREAKVQWKVDNALQSGNSQESVTEQDSKDSTYSLSSTLTLSKADYEKHKVYACEVTHQGLSSPVTKSFNRGEC |
| – | 75.8 relative, GpH7-A5/GpH7-B3/GpL16-k0 = 100 | 53.6 relative, GpH7-A5/GpH7-B3/GpL16-k0 = 100 | 1.41 | – | GpH7-A5/GpH7-B3 variant D270_08L/GpL16-k0 (antibody, human IgG1, kappa, Heterodimerized IgG1; mutation only in the GpH7-B3 chain; also called He Ab) heavy 1: not shown heavy 2: not shown light: DIVMTQSPLSLPVTPGEPASISCQASESLVHSNRNTYLHWYLQKPGQSPQLLIYKVSNRFSGVPDRFSGSGSGTDFTLKISRVEAEDVGVYYCSQNTHVPPTFGQGTKVEIERTVAAPSVFIFPPSDEQLKSGTASVVCLLNNFYPREAKVQWKVDNALQSGNSQESVTEQDSKDSTYSLSSTLTLSKADYEKHKVYACEVTHQGLSSPVTKSFNRGEC |
| – | 102 relative, GpH7-A5/GpH7-B3/GpL16-k0 = 100 | 76.5 relative, GpH7-A5/GpH7-B3/GpL16-k0 = 100 | 1.34 | – | GpH7-A5/GpH7-B3 variant D270_10E/GpL16-k0 (antibody, human IgG1, kappa, Heterodimerized IgG1; mutation only in the GpH7-B3 chain; also called He Ab) heavy 1: not shown heavy 2: not shown light: DIVMTQSPLSLPVTPGEPASISCQASESLVHSNRNTYLHWYLQKPGQSPQLLIYKVSNRFSGVPDRFSGSGSGTDFTLKISRVEAEDVGVYYCSQNTHVPPTFGQGTKVEIERTVAAPSVFIFPPSDEQLKSGTASVVCLLNNFYPREAKVQWKVDNALQSGNSQESVTEQDSKDSTYSLSSTLTLSKADYEKHKVYACEVTHQGLSSPVTKSFNRGEC |
| – | – | – | – | 107 % of control (=100) | GpH7-A5/GpH7-B3 variant T335_07I/GpL16-k0 (antibody, human IgG1, kappa, heterodimerized IgG1, mutation in one H chain only; also called He Ab) heavy 1: not shown heavy 2: not shown light: DIVMTQSPLSLPVTPGEPASISCQASESLVHSNRNTYLHWYLQKPGQSPQLLIYKVSNRFSGVPDRFSGSGSGTDFTLKISRVEAEDVGVYYCSQNTHVPPTFGQGTKVEIERTVAAPSVFIFPPSDEQLKSGTASVVCLLNNFYPREAKVQWKVDNALQSGNSQESVTEQDSKDSTYSLSSTLTLSKADYEKHKVYACEVTHQGLSSPVTKSFNRGEC |
